# PMC10499821
# What was measured:
# Nsp3 Ubl1 (SARS-CoV-2) = Nsp3 Ubl1 (SARS-CoV-2) (UniProt P0DTD1); assay: fluorescence polarisation
# [1] = biological target: FITC-PRDM14_(197–213) (human); assay: fluorescence polarisation
Substance,fold lower affinity than NCOA2 (1074–1089) (Nsp3 Ubl1 (SARS-CoV-2)),fold reduction of affinity against wild-type Nsp3 SUD-M [1]
Y to V mutant of the NCOA2_(1074–1089) peptide (from UniProt Q15596 1074-1089),20 fold,
"Nsp3 SUD-M A1397E, V1453K, S1478D (from UniProt P0DTD1 819-2763) (domain or fragment)",,100 fold
